In article PMC12377726 (Proceedings of the National Academy of Sciences of the …, 2025):

The binders below were run against eOD-GT8 (engineered outer domain germline-targeting version 8), monomer (HIV-1 gp120 engineered outer domain, …).

Binder | binding result
G001_gp1_V06_VRC01c_2021-0010 (antibody, V domains shown) VH: QVQLVQSGAEVKKPGASVKVSCKASGYTFTGYYMQWMRQAPGQGLEWMGWINPNSGGTNYAQKFQGWVTMTRDTSISTVYMELSRLRSDDTAVYYCARGFTNWNLDYWGQGTLVTVSS VL: EIVLTQSPGTLSLSPGERATLSCRASQSVSSSYLAWYQQKPGQAPRLLIYGASSRATGIPDRFSGSGSGTDFTLTISRLEPEDFAMYYCQQYETFGQGTKVEIK | binds
G001_LD_V05_VRC01c_17 (antibody, V domains shown) VH: not shown VL: DIQMTQSPSSLSASVGDRVTITCQASQDISNYLNWYQQKPGKAPKLLIYDASNLETGVPSRFSGSGSGTDFTFTISSLQPEDIATYYCQQYEFFGGGTKVEIK | binds
G001_gp1_V06_VRC01c_2021-0006 (antibody, V domains shown) VH: not shown VL: DIQMTQSPSSLSASVGDRVTITCQASQDINNYLNWYQQKPGKAPKLLIYDASNLETGVPSRFSGSGSGTDFTFTISSLQPEDIATYYCQQYETFGQGTRLEIK | binds
G001_gp1_V06_VRC01c_2021-0008 (antibody, V domains shown) VH: not shown VL: DIQMTQSPSSLSASVGDRVTITCQASQDISNYLNWYQQKPGKAPKLLIYDASNLQTGVPSRFSGSGSGTDFTFTISSLQPEDIATYYCQQYDFFGGGTKVEIK | binds
G001_LD_V05_VRC01c_29 (antibody, V domains shown) VH: not shown VL: DIQMTQSPSSLSASVGDRVTITCQASQDISNYLNWYQQKPGKAPKLLIYDASNLETGVPSRFSGSGSGTDFTFSISSLQPDDIATYYCQQYEGFGPGTKVDIK | binds
G001_LD_V05_VRC01c_20 (antibody, V domains shown) VH: not shown VL: DIQMTQSPSSLSASVGDRVTITCQASQDISNYLNWYQQKPGKAPKLLIYDASNLETGVPSRFSGSGSGTDFTFTISSLQPEDIATYYCQQYDFFGGGTKVEIK | binds
G001_LD_V05_VRC01c_21 (antibody, V domains shown) VH: not shown VL: DIQMTQSPSSLSASVGDRVTITCQASQDISNYLNWYQQKPGKAPKLLIYDASNLETGVPSRFSGSGSGTDFTFTISILQPEDTATYYCQQYDTFGPGTKVDIK | binds
G001_gp1_V06_VRC01c_2021-0004 (antibody, V domains shown) VH: not shown VL: DIQMTQSPSSLSASVGDRVTITCQASQDISNYLNWYQQKPGKAPKLLIYDASNLETGVPSRFSGSGSGTDFTFTISSLQPEDIATYYCQQYNTFGGGTKVEIK | binds
G001_LD_V05_VRC01c_30 (antibody, V domains shown) VH: not shown VL: DIQMTQSPSSLSTSVGDRVTITCQASQDITNYLNWYQQKPGKAPKLLIYDASNLETGVPSRFSGSGSGTDFTFTISSLQPEDIATYYCQQYDNFGGGTKVEIK | binds
G001_gp1_V06_VRC01c_2021-0003 (antibody, V domains shown) VH: QVQLVQSGAEVKKPGASVKVSCKASGYTFTGYYIHWVRQAPGQGLEWMGWINPNSGGTNYAQKFQGWVTMTRDTSISTAYMELRRLRSDDTAVYYCARVKDYYDSIGGWYFDLWGRGTLVTVSS VL: not shown | binds
G001_gp1_V06_VRC01c_2021-0007 (antibody, V domains shown) VH: QVQLVQSGAEVKKPGASVKVSCKASGYTFTGSYMHWVRQAPGQGLEWMGWINPNSGGTNYAQKFQGWVTMTRDTSISTAYMELSRLRSDDTAVYYCATASSGSYYWYFDLWGRGTLVTVSS VL: EIVMTQSPATLSVSPGERATLSCRASQSVSSNLAWYQQKPGQAPRLLIYGASTRATGIPARFSGSGSGTEFTLTISSLQSEDFAVYYCQQYETFGQGTKVEIK | binds
G001_gp1_V06_VRC01c_2021-0005 (antibody, V domains shown) VH: not shown VL: DIQMTQSPSTLSASVGDRVTITCRASQSISSWLAWYQQKPGKAPKLLIYKASSLESGVPSRFSGSGSGTEFTLTISSLQPDDFATYYCQQYETFGQGTKVEIK | binds
